Reference: paper PMC10786891, “Massively parallel profiling of RNA-targeting CRISPR-Cas13d”

Molecular target: T1, EsCas13d, nuclease-dead (Eubacterium siraeum, UniProt B0MS50, R295A;H300A;R849A;H854A)
T1 sequence: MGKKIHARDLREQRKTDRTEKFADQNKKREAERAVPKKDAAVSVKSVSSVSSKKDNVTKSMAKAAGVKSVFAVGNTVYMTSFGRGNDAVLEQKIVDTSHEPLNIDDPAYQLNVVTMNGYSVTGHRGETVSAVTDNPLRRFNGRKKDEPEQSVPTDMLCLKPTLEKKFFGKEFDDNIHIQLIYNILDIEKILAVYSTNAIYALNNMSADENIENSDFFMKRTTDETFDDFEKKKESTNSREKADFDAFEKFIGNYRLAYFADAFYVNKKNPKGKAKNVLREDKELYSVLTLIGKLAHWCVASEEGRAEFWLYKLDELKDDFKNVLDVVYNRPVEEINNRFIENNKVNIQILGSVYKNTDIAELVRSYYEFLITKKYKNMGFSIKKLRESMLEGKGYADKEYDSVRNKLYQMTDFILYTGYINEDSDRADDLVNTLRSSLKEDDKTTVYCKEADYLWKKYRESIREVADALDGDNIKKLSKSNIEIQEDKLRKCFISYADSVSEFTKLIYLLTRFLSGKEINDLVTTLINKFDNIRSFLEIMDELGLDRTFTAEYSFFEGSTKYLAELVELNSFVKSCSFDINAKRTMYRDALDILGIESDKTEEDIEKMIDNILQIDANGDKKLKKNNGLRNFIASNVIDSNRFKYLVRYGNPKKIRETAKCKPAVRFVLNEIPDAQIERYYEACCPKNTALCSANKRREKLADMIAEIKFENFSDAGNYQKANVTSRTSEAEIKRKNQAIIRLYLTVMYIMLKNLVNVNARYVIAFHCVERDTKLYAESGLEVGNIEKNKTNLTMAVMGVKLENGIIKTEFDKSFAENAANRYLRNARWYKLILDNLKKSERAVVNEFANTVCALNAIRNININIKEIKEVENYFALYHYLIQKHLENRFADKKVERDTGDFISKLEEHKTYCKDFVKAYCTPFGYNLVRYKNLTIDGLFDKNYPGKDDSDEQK
Experiment: crRNA (strand 1, pre-loaded); Mg2+; 40 mM Tris-HCl pH 7.5, 150 mM NaCl, 6 mM MgCl2, 1 mM DTT, 0.1% Tween-20, 0.2 mg/ml BSA; 25 C; 10 min per concentration, then washed
Conditions: tags: His6-TwinStrep-SUMO cleaved; N-terminal SNAP kept (SNAP-Surface 488); label: 3' end held by stalled T7 RNA polymerase

B1: target 1 insA 3' of 3,insG 3' of 1 (mixed)
RNA 1: CACCCGUGCAAAAAUGCAGGGGUCUAAAACUGAGCGGAUAACCUCUCUAUGG
RNA 2: GGGAAUGGAUCCACAUCUACGAAUUCGUACCAUAGAGAGGUUAUCCGCUACAGCCGAGAUCGGAAGAGCACACGU
Kd: 5.69 ± 0.25 nM

B2: target 1 insC 3' of 20,insA 3' of 17 (mixed)
RNA 1: CACCCGUGCAAAAAUGCAGGGGUCUAAAACUGAGCGGAUAACCUCUCUAUGG
RNA 2: GGGAAUGGAUCCACAUCUACGAAUUCGUACCACUAGAAGAGGUUAUCCGCUCACCGAGAUCGGAAGAGCACACGU
Kd: 8.5 ± 0.8 nM

B3: target 1 del5,del15 (mixed)
RNA 1: CACCCGUGCAAAAAUGCAGGGGUCUAAAACUGAGCGGAUAACCUCUCUAUGG
RNA 2: GGGAAUGGAUCCACAUCUACGAAUUCGUACCAUAGAAGGUUAUCCCUCACCGAGAUCGGAAGAGCACACGU
Kd: 27.3 ± 2.6 nM

B4: target 1 C7A,A16C (mixed)
RNA 1: CACCCGUGCAAAAAUGCAGGGGUCUAAAACUGAGCGGAUAACCUCUCUAUGG
RNA 2: GGGAAUGGAUCCACAUCUACGAAUUCGUACCAUAGCGAGGUUAUACGCUCACCGAGAUCGGAAGAGCACACGU
Kd: 56.1 ± 2.7 nM

B5: target 1 G13C,C22U (mixed)
RNA 1: CACCCGUGCAAAAAUGCAGGGGUCUAAAACUGAGCGGAUAACCUCUCUAUGG
RNA 2: GGGAAUGGAUCCACAUCUACGAAUUCGUAUCAUAGAGACGUUAUCCGCUCACCGAGAUCGGAAGAGCACACGU
Kd: 62 ± 19 nM

B6: target 1 U11G,C22A (mixed)
RNA 1: CACCCGUGCAAAAAUGCAGGGGUCUAAAACUGAGCGGAUAACCUCUCUAUGG
RNA 2: GGGAAUGGAUCCACAUCUACGAAUUCGUAACAUAGAGAGGGUAUCCGCUCACCGAGAUCGGAAGAGCACACGU
Kd: 39 ± 8 nM

B7: target 1 insA 3' of 22,insC 3' of 9 (mixed)
RNA 1: CACCCGUGCAAAAAUGCAGGGGUCUAAAACUGAGCGGAUAACCUCUCUAUGG
RNA 2: GGGAAUGGAUCCACAUCUACGAAUUCGUACACAUAGAGAGGUUACUCCGCUCACCGAGAUCGGAAGAGCACACGU
Kd: 14.4 ± 0.6 nM

B8: target 1 A1C,G5U (mixed)
RNA 1: CACCCGUGCAAAAAUGCAGGGGUCUAAAACUGAGCGGAUAACCUCUCUAUGG
RNA 2: GGGAAUGGAUCCACAUCUACGAAUUCGUACCAUAGAGAGGUUAUCCUCUCCCCGAGAUCGGAAGAGCACACGU
Kd: 33 ± 4 nM

B9: target 1 insC 3' of 14,insA 3' of 8 (mixed)
RNA 1: CACCCGUGCAAAAAUGCAGGGGUCUAAAACUGAGCGGAUAACCUCUCUAUGG
RNA 2: GGGAAUGGAUCCACAUCUACGAAUUCGUACCAUAGAGACGGUUAUACCGCUCACCGAGAUCGGAAGAGCACACGU
Kd: 49 ± 5 nM

B10: target 1 U10G,U11C (mixed)
RNA 1: CACCCGUGCAAAAAUGCAGGGGUCUAAAACUGAGCGGAUAACCUCUCUAUGG
RNA 2: GGGAAUGGAUCCACAUCUACGAAUUCGUACCAUAGAGAGGCGAUCCGCUCACCGAGAUCGGAAGAGCACACGU
Kd: 14.1 ± 0.6 nM

B11: target 1 insC 3' of 11,insG 3' of 8 (mixed)
RNA 1: CACCCGUGCAAAAAUGCAGGGGUCUAAAACUGAGCGGAUAACCUCUCUAUGG
RNA 2: GGGAAUGGAUCCACAUCUACGAAUUCGUACCAUAGAGAGGUCUAUGCCGCUCACCGAGAUCGGAAGAGCACACGU
Kd: 64 ± 8 nM

B12: target 1 insU 3' of 18,insA 3' of 4 (mixed)
RNA 1: CACCCGUGCAAAAAUGCAGGGGUCUAAAACUGAGCGGAUAACCUCUCUAUGG
RNA 2: GGGAAUGGAUCCACAUCUACGAAUUCGUACCAUAUGAGAGGUUAUCCGCAUCACCGAGAUCGGAAGAGCACACGU
Kd: 20.9 ± 1.7 nM

B13: target 1 C7U,G17U (mixed)
RNA 1: CACCCGUGCAAAAAUGCAGGGGUCUAAAACUGAGCGGAUAACCUCUCUAUGG
RNA 2: GGGAAUGGAUCCACAUCUACGAAUUCGUACCAUAUAGAGGUUAUUCGCUCACCGAGAUCGGAAGAGCACACGU
Kd: 19.7 ± 1.8 nM

B14: target 1 insU 3' of 17,insA 3' of 12 (mixed)
RNA 1: CACCCGUGCAAAAAUGCAGGGGUCUAAAACUGAGCGGAUAACCUCUCUAUGG
RNA 2: GGGAAUGGAUCCACAUCUACGAAUUCGUACCAUAGUAGAGGAUUAUCCGCUCACCGAGAUCGGAAGAGCACACGU
Kd: 37 ± 6 nM

B15: target 1 insC 3' of 17,insA 3' of 3 (mixed)
RNA 1: CACCCGUGCAAAAAUGCAGGGGUCUAAAACUGAGCGGAUAACCUCUCUAUGG
RNA 2: GGGAAUGGAUCCACAUCUACGAAUUCGUACCAUAGCAGAGGUUAUCCGCUACACCGAGAUCGGAAGAGCACACGU
Kd: 53 ± 8 nM

B16: target 1 C6A,A14C (mixed)
RNA 1: CACCCGUGCAAAAAUGCAGGGGUCUAAAACUGAGCGGAUAACCUCUCUAUGG
RNA 2: GGGAAUGGAUCCACAUCUACGAAUUCGUACCAUAGAGCGGUUAUCAGCUCACCGAGAUCGGAAGAGCACACGU
Kd: 11.7 ± 0.5 nM

B17: target 1 U10C,U19A (mixed)
RNA 1: CACCCGUGCAAAAAUGCAGGGGUCUAAAACUGAGCGGAUAACCUCUCUAUGG
RNA 2: GGGAAUGGAUCCACAUCUACGAAUUCGUACCAAAGAGAGGUCAUCCGCUCACCGAGAUCGGAAGAGCACACGU
Kd: 100 ± 40 nM

B18: target 1 insU 3' of 14,insA 3' of 7 (mixed)
RNA 1: CACCCGUGCAAAAAUGCAGGGGUCUAAAACUGAGCGGAUAACCUCUCUAUGG
RNA 2: GGGAAUGGAUCCACAUCUACGAAUUCGUACCAUAGAGAUGGUUAUCACGCUCACCGAGAUCGGAAGAGCACACGU
Kd: 32.2 ± 3 nM

B19: target 1 insG 3' of 19,insC 3' of 3 (mixed)
RNA 1: CACCCGUGCAAAAAUGCAGGGGUCUAAAACUGAGCGGAUAACCUCUCUAUGG
RNA 2: GGGAAUGGAUCCACAUCUACGAAUUCGUACCAUGAGAGAGGUUAUCCGCUCCACCGAGAUCGGAAGAGCACACGU
Kd: 62 ± 8 nM

B20: target 1 insG 3' of 18,insA 3' of 13 (mixed)
RNA 1: CACCCGUGCAAAAAUGCAGGGGUCUAAAACUGAGCGGAUAACCUCUCUAUGG
RNA 2: GGGAAUGGAUCCACAUCUACGAAUUCGUACCAUAGGAGAGAGUUAUCCGCUCACCGAGAUCGGAAGAGCACACGU
Kd: 46 ± 6 nM

B21: target 1 G17U,U19A (mixed)
RNA 1: CACCCGUGCAAAAAUGCAGGGGUCUAAAACUGAGCGGAUAACCUCUCUAUGG
RNA 2: GGGAAUGGAUCCACAUCUACGAAUUCGUACCAAAUAGAGGUUAUCCGCUCACCGAGAUCGGAAGAGCACACGU
Kd: 36.8 ± 2.9 nM

B22: target 1 insC 3' of 19,insC 3' of 13 (mixed)
RNA 1: CACCCGUGCAAAAAUGCAGGGGUCUAAAACUGAGCGGAUAACCUCUCUAUGG
RNA 2: GGGAAUGGAUCCACAUCUACGAAUUCGUACCAUCAGAGAGCGUUAUCCGCUCACCGAGAUCGGAAGAGCACACGU
Kd: 49 ± 15 nM

B23: target 1 del16,del19 (mixed)
RNA 1: CACCCGUGCAAAAAUGCAGGGGUCUAAAACUGAGCGGAUAACCUCUCUAUGG
RNA 2: GGGAAUGGAUCCACAUCUACGAAUUCGUACCAAGGAGGUUAUCCGCUCACCGAGAUCGGAAGAGCACACGU
Kd: 73 ± 20 nM

B24: target 1 insU 3' of 20,insA 3' of 5 (mixed)
RNA 1: CACCCGUGCAAAAAUGCAGGGGUCUAAAACUGAGCGGAUAACCUCUCUAUGG
RNA 2: GGGAAUGGAUCCACAUCUACGAAUUCGUACCAUUAGAGAGGUUAUCCGACUCACCGAGAUCGGAAGAGCACACGU
Kd: 12.2 ± 0.9 nM

B25: target 1 insA 3' of 15,insG 3' of 14 (mixed)
RNA 1: CACCCGUGCAAAAAUGCAGGGGUCUAAAACUGAGCGGAUAACCUCUCUAUGG
RNA 2: GGGAAUGGAUCCACAUCUACGAAUUCGUACCAUAGAGAAGGGUUAUCCGCUCACCGAGAUCGGAAGAGCACACGU
Kd: 10.6 ± 1.2 nM

B26: target 1 insA 3' of 3,insC 3' of 1 (mixed)
RNA 1: CACCCGUGCAAAAAUGCAGGGGUCUAAAACUGAGCGGAUAACCUCUCUAUGG
RNA 2: GGGAAUGGAUCCACAUCUACGAAUUCGUACCAUAGAGAGGUUAUCCGCUACACCCGAGAUCGGAAGAGCACACGU
Kd: 23 ± 4 nM

B27: target 1 insA 3' of 3,insU 3' of 1 (mixed)
RNA 1: CACCCGUGCAAAAAUGCAGGGGUCUAAAACUGAGCGGAUAACCUCUCUAUGG
RNA 2: GGGAAUGGAUCCACAUCUACGAAUUCGUACCAUAGAGAGGUUAUCCGCUACAUCCGAGAUCGGAAGAGCACACGU
Kd: 9.2 ± 0.5 nM

B28: target 1 G5C,U19C (mixed)
RNA 1: CACCCGUGCAAAAAUGCAGGGGUCUAAAACUGAGCGGAUAACCUCUCUAUGG
RNA 2: GGGAAUGGAUCCACAUCUACGAAUUCGUACCACAGAGAGGUUAUCCCCUCACCGAGAUCGGAAGAGCACACGU
Kd: 32 ± 6 nM
